Experimental data: article PMC13284460, “HPV16 E2 protein possesses intrinsic helicase activity and sterically hinders E1 function through direct interaction”

Tests used:
HPV16 E2 [1] = target: T1, HPV16 E2 (Human papillomavirus type 16, UniProt P03120 1-365); experiment: fluorescence polarization; 5 mM Mg2+; FP: 20 mM Tris-HCl pH 7.0, 10 mM NaCl, 0.1 mg/ml BSA, 5 mM MgCl2, 1 mM DTT, room temperature, 60 min; 50 nM probe, 0-200 nM protein; conditions: protein: recombinant; tags: His (pET28a, Ni-NTA); HA (blots); chain copies: 2; label: 5' Cy3; single strand
HPV16 E1 = target: T2, HPV16 E1 (Human papillomavirus type 16, UniProt P03114 1-649); experiment: as above; conditions: protein: recombinant; tags: His (pET28a, Ni-NTA); Myc (co-IP); chain copies: 6; label: 5' Cy3; single strand
T2 sequence: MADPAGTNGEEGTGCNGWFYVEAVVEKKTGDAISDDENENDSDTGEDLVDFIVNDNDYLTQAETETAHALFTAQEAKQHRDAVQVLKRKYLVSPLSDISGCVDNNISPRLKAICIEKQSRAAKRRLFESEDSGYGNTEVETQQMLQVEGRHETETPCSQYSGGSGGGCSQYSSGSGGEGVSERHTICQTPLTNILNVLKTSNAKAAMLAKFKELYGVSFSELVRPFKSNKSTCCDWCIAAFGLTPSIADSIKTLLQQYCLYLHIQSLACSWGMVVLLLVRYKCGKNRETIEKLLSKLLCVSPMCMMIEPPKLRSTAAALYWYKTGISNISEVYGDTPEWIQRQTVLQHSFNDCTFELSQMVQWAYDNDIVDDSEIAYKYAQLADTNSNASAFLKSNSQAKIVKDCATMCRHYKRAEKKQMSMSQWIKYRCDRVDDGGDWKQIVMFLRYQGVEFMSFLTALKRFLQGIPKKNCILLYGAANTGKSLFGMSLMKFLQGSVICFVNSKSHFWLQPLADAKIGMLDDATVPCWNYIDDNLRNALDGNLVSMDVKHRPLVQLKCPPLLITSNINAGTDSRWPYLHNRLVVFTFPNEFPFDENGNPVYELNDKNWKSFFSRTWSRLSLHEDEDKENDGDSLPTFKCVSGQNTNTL

HPV16 E2 [2] = target: T1, HPV16 E2; experiment: fluorescence polarization; 5 mM Mg2+; separate experiment alongside E1; FP: 20 mM Tris-HCl pH 7.0, 10 mM NaCl, 0.1 mg/ml BSA, 5 mM MgCl2, 1 mM DTT, room temperature, 60 min; 50 nM probe, 0-200 nM protein; conditions: protein: recombinant; tags: His (pET28a, Ni-NTA); HA (blots); chain copies: 2; label: 5' Cy3; single strand

T1 sequence (P03120 whole entry): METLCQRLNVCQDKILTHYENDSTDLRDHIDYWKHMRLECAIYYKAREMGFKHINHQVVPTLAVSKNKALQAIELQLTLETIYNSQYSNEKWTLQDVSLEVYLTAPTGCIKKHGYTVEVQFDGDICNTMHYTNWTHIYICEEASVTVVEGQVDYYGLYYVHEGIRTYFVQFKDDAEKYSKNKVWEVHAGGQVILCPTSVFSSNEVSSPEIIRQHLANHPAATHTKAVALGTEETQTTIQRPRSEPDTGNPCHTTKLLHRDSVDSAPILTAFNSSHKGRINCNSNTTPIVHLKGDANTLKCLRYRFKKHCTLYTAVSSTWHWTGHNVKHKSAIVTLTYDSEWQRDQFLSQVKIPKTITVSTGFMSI

GCGTCTTTACGGGTGCTTAAAAACAAAAACAAAAACAAAA (ssDNA) [Cy3-labeled 40-nt ssDNA (FP probe)] gave a Kd (HPV16 E2 [1]) of 24 ± 8 nM, a Kd (HPV16 E1) of 172 ± 88 nM and a Kd (HPV16 E2 [2]) of 28 ± 10 nM.
